The record followed here is US20130330414A1.

This assay has as its target 8.3-TCR on 8.3-CD8+ T-cells of 8.3-TCR-transgenic NOD mice. Put plainly: cell-based or functional assay.

Sequence of IGRP206-214/K^d pMHC complex (P01902 22-305, one chain of several): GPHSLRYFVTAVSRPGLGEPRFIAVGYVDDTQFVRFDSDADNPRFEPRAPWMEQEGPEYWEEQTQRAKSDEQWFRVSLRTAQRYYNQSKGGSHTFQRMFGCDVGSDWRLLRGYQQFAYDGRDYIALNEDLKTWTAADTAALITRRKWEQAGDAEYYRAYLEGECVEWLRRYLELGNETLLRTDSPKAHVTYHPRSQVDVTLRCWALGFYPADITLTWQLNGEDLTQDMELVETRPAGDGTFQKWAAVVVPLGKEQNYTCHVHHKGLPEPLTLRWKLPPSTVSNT

As to “IGRP206-214/K^d pMHC complex (from UniProt Q9Z186 206-214; P01902 22-305) (peptide-MHC)”, the IFNγ responses (ng/mL); NP IGRP-SFP-011411, Fe3O4 8 nm, pMHC valency 54, 5 × 10^11 NPs/mL turned out to be 2.3 ng/mL; the IFNγ responses (ng/mL); NP IGRP-SFP-012011, Fe3O4 8 nm, pMHC valency 14, 5 × 10^11 NPs/mL was 0.2 ng/mL; the IFNγ responses (ng/mL); NP IGRP-SFP-031511, Fe3O4 8 nm, pMHC valency 15, 5 × 10^11 NPs/mL is 0.15 ng/mL; the IFNγ responses (ng/mL); NP IGRP-SFP-051211, Fe3O4 8 nm, pMHC valency 31, 5 × 10^11 NPs/mL was determined as 0.7 ng/mL. Also, the IFNγ responses (ng/mL); NP IGRP-SFP-100711, Fe3O4 8 nm, pMHC valency 39, 5 × 10^11 NPs/mL is 0.9 ng/mL; the IFNγ responses (ng/mL); NP IGRP-SFP-102912, Fe3O4 8 nm, pMHC valency 11, 5 × 10^11 NPs/mL came out at 0.4 ng/mL; the IFNγ responses (ng/mL); NP IGRP-SFPM-110512, Fe3O4 8 nm, pMHC valency 8, 5 × 10^11 NPs/mL turned out to be 0.03 ng/mL.
